From US20100048412A1 come the findings set out here.

The target of this assay is R19-Ava-…-NH2 (2). The assay can be described thus: cell-based or functional assay.

“prostate-specific antigen (PSA), proteolytically active (from UniProt P07288 25-261) (enzyme)” returned a suppression of peptide digestion by 420 nM PSA after addition of the protease inhibitor mix (AEBSF, Aprotinin, Elastatinal, GGACK) above 90%.
